US20060160117

Tests used:
[1] = biological target: T1, MTase(R124) (UniProt P10484)
T1 sequence 1: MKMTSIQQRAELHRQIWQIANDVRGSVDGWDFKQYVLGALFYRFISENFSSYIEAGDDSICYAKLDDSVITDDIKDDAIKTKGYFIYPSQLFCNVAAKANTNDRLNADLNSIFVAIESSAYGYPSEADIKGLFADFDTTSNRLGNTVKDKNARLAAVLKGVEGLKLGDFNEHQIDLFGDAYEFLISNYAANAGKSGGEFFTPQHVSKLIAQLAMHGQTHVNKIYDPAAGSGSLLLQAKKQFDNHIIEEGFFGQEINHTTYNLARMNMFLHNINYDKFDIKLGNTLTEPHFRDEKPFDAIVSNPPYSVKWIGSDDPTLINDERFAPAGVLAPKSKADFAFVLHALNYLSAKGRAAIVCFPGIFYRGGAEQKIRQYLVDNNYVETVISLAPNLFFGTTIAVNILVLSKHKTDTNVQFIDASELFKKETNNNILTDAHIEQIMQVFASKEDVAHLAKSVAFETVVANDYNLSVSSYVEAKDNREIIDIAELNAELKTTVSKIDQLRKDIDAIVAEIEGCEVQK
T1 sequence 2: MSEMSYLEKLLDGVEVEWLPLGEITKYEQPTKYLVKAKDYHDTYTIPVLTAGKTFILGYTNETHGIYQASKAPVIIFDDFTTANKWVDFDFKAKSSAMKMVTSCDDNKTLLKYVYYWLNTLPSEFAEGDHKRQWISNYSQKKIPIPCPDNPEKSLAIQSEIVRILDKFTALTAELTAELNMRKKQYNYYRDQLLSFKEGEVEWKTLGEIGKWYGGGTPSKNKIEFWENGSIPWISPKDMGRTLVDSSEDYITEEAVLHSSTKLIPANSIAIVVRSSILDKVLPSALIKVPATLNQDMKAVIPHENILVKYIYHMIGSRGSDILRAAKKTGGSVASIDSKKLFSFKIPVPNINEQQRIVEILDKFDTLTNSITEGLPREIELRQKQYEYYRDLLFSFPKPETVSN

[2] = biological target: T2, MTase(R124), P10484
T2 chain 1: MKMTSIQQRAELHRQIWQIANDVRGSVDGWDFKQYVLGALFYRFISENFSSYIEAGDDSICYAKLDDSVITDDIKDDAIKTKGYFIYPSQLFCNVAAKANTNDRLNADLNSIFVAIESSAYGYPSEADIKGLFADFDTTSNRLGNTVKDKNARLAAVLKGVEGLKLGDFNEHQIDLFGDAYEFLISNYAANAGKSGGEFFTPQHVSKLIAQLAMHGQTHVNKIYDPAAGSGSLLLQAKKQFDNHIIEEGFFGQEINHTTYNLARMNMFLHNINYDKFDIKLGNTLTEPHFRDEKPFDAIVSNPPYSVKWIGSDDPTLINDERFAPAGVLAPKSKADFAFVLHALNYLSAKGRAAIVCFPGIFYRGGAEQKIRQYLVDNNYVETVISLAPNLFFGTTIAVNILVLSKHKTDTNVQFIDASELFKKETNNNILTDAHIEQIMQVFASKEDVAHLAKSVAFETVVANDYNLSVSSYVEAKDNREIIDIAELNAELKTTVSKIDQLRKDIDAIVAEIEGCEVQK
T2 chain 2: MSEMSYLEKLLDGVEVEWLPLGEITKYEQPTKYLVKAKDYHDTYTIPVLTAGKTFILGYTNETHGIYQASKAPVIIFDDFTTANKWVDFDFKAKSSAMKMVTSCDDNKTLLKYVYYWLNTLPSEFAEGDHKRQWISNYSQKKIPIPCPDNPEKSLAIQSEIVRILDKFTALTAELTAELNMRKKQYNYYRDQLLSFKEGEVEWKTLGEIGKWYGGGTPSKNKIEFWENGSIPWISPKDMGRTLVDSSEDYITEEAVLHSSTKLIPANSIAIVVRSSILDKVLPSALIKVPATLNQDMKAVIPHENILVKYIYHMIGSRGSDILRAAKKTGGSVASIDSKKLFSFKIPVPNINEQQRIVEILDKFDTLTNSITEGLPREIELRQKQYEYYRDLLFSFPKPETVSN

HsdR(prrI)
DNA cleavage by the hybrid endonuclease [1]: this hybrid enzyme can only cleave DNA in the presence of extremely high concentrations of HsdR(prrI)

B1: HsdR(R124) (protein)
chain: MTHQTHTIAESNNFIVLDKYIKAEPTGDSYQSESDLERELIQDLRNQGYEFISVKSQSAMLANVREQLQNLNGVVFNDSEWRRFTEQYLDNPSDGILDKTRKIHIDYICDFIFDDERLENIYLIDKKNLMRNKVQIIQQFEQAGSHANRYDVTILVNGLPLVQIELKKRGVAIREAFNQIHRYSKESFNSENSLFKYLQLFVISNGTDTRYFANTTKRDKNSFDFTMNWAKSDNTLIKDLKDFTATCFQKHTLLNVLVNYSVFDSSQTLLVMRPYQIAATERILWKIKSSFTAKNWSKPESGGYIWHTTGSGKTLTSFKAARLATELDFIDKVFFVVDRKDLDYQTMKEYQRFSPDSVNGSENTAGLKRNLDKDDNKIIVTTIQKLNNLMKAESDLPVYNQQVVFIFDECHRSQFGEAQKNLKKKFKRYYQFGFTGTPIFPENALGSETTASVFGRELHSYVITDAIRDEKVLKFKVDYNDVRPQFKSLETETDEKKLSAAENQQAFLHPMRIQEITQYILNNFRQKTHRTFPGSKGFNAMLAVSSVDAAKAYYATFKRLQEEAANKSATYKPLRIATIFSFAANEEQNAIGEISDETFDTSAMDSSAKEFLDAAIREYNSHFKTNFSTDSNGFQNYYRDLAQRVKNQDIDLLIVVGMFLTGFDAPTLNTLFVDKNLRYHGLMQAFSRTNRIYDATKTFGNIVTFRDLERSTIDAITLFGDKNTKNVVLEKSYTEYMEGFTDAATGEAKRGFMTVVSELEQRFPDPTSIESEKEKKDFVKLFGEYLRAENILQNYDEFATLKALQQIDLSDPVAVEKFKAEHYVDDEKFAELQTIRLPADRKIQDYRSAYNDIRDWQRREKEAEKKEKSTTDWDDVVFEVDLLKSQEINLDYILGLIFEHNRQNKGKGEMIEEVKRLIRSSLGNRAKEGLVVDFIQQTNLDDLPDKASIIDAFFTFAQREQQREAEALIKEENLNEDAAKRYIRTSLKREYATENGTELNETLPKLSPLNPQYKTKKQAVFQKIVSFIEKFKGVGGKI
cleavage of pCFD30 plasmid DNA (agarose gel) [2]: The R2-complex was found to cleave the plasmid DNA, as expected. No cleavage was observed for the R1-complex
